# Data taken from publication PMC12416549 (2024).
# Positions count from the first letter of the chain named. In names and notes the source's numbering stands.
# T1: TNFR1 (Homo sapiens, UniProt P19438)
# T1 chain: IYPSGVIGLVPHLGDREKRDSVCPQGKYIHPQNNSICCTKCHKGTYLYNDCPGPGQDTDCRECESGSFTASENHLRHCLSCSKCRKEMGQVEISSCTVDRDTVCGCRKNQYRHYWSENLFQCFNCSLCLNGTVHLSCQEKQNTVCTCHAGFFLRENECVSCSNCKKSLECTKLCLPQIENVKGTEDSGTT
# B1: K29L (designed binder)
# chain: SMEEEVEKAAKEYEKKKKEAIEKHLEKLLAKDKEAAERFLKELEEAAKEYAKDEAKTMSEEEAKRRAKKYKEKVLLSELSEEEQKEIKEAEEKLVRTILKYVEEAAK
# B2: E83K (designed binder)
# chain: B1 chain with L29K, E83K
# B3: K88I (designed binder)
# chain: B1 chain with L29K, K88I
# B4: E26R (designed binder)
# chain: B1 chain with E26R, L29K
# B5: S80N (designed binder)
# chain: B1 chain with L29K, S80N
# B6: A9E (designed binder)
# chain: B1 chain with A9E, L29K
# B7: K11V (designed binder)
# chain: B1 chain with K11V, L29K
# B8: A90K (designed binder)
# chain: B1 chain with L29K, A90K
# B9: K31E (designed binder)
# chain: B1 chain with L29K, K31E
# B10: A36M (designed binder)
# chain: B1 chain with L29K, A36M
# B11: K8H (designed binder)
# chain: B1 chain with K8H, L29K
# B12: M58W (designed binder)
# chain: B1 chain with L29K, M58W
# B13: T97L (designed binder)
# chain: B1 chain with L29K, T97L
# B14: I98E (designed binder)
# chain: B1 chain with L29K, I98E
# B15: I98R (designed binder)
# chain: B1 chain with L29K, I98R
# B16: T97D (designed binder)
# chain: B1 chain with L29K, T97D
# B17: K88L (designed binder)
# chain: B1 chain with L29K, K88L
# B18: K27F (designed binder)
# chain: B1 chain with K27F, L29K
# B19: E49K (designed binder)
# chain: B1 chain with L29K, E49K
# B20: Q84A (designed binder)
# chain: B1 chain with L29K, Q84A
# B21: L40S (designed binder)
# chain: B1 chain with L29K, L40S
# B22: K41H (designed binder)
# chain: B1 chain with L29K, K41H
# B23: K17L (designed binder)
# chain: B1 chain with K17L, L29K
# B24: M58I (designed binder)
# chain: B1 chain with L29K, M58I
# B25: K52R (designed binder)
# chain: B1 chain with L29K, K52R
# B26: K16H (designed binder)
# chain: B1 chain with K16H, L29K
# B27: K88C (designed binder)
# chain: B1 chain with L29K, K88C
# B28: E104Y (designed binder)
# chain: B1 chain with L29K, E104Y
# B29: K69I (designed binder)
# chain: B1 chain with L29K, K69I
# B30: K15A (designed binder)
# chain: B1 chain with K15A, L29K
# B31: A47G (designed binder)
# chain: B1 chain with L29K, A47G
# B32: E72Y (designed binder)
# chain: B1 chain with L29K, E72Y
# B33: E81L (designed binder)
# chain: B1 chain with L29K, E81L
# B34: E62S (designed binder)
# chain: B1 chain with L29K, E62S
# B35: K8W (designed binder)
# chain: B1 chain with K8W, L29K
# B36: A10W (designed binder)
# chain: B1 chain with A10W, L29K
# B37: V74N (designed binder)
# chain: B1 chain with L29K, V74N
# B38: L99R (designed binder)
# chain: B1 chain with L29K, L99R
# B39: E81D (designed binder)
# chain: B1 chain with L29K, E81D
# B40: E103S (designed binder)
# chain: B1 chain with L29K, E103S
# B41: A51I (designed binder)
# chain: B1 chain with L29K, A51I
# B42: E62F (designed binder)
# chain: B1 chain with L29K, E62F
# B43: A20M (designed binder)
# chain: B1 chain with A20M, L29K
# B44: Y101Q (designed binder)
# chain: B1 chain with L29K, Y101Q
# B45: S77T (designed binder)
# chain: B1 chain with L29K, S77T
# B46: K100R (designed binder)
# chain: B1 chain with L29K, K100R
# B47: E3I (designed binder)
# chain: B1 chain with E3I, L29K
# B48: E14S (designed binder)
# chain: B1 chain with E14S, L29K
# B49: E72G (designed binder)
# chain: B1 chain with L29K, E72G
# B50: A10K (designed binder)
# chain: B1 chain with A10K, L29K
# B51: A90H (designed binder)
# chain: B1 chain with L29K, A90H
# B52: K85A (designed binder)
# chain: B1 chain with L29K, K85A
# B53: E86K (designed binder)
# chain: B1 chain with L29K, E86K
# B54: E81I (designed binder)
# chain: B1 chain with L29K, E81I
# B55: E61G (designed binder)
# chain: B1 chain with L29K, E61G
# B56: K48N (designed binder)
# chain: B1 chain with L29K, K48N
# B57: A46E (designed binder)
# chain: B1 chain with L29K, A46E
# B58: E89A (designed binder)
# chain: B1 chain with L29K, E89A
# B59: E49I (designed binder)
# chain: B1 chain with L29K, E49I
# Target: T1, TNFR1
# Test: yeast display SC50
row,Binder,apparent Kd (screen) [nM]
1,B1,0.79
2,B2,0.593
3,B3,0.446
4,B4,0.593
5,B5,2.73
6,B6,0.446
7,B7,0.593
8,B8,0.956
9,B9,1.05
10,B10,0.446
11,B11,0.956
12,B12,18.3
13,B13,1.69
14,B14,4.39
15,B15,1.4
16,B16,0.446
17,B17,0.49
18,B18,0.49
19,B19,10.4
20,B20,11.4

row,Binder,apparent Kd (screen) [nM]
1,B21,0.446
2,B22,0.593
3,B23,1.69
4,B24,6.43
5,B25,0.49
6,B26,0.446
7,B27,0.446
8,B28,0.653
9,B29,0.446
10,B30,0.956
11,B31,0.593
12,B32,1.4
13,B33,0.653
14,B34,0.49
15,B35,1.54
16,B36,3
17,B37,16.7
18,B38,12.5
19,B39,1.69
20,B40,0.49

row,Binder,apparent Kd (screen) [nM]
1,B41,12.5
2,B42,0.446
3,B43,0.446
4,B44,1.27
5,B45,2.25
6,B46,1.27
7,B47,12.5
8,B48,7.07
9,B49,1.54
10,B50,0.49
11,B51,0.446
12,B52,0.539
13,B53,0.593
14,B54,0.593
15,B55,1.54
16,B56,0.49
17,B57,5.84
18,B58,1.4
19,B59,20.2
